Measurements taken from paper PMC11161758 (Proceedings of the National Academy of Sciences of the …, 2024).

Biological target: T1, N-terminal FLAG tag-p22phox (human, UniProt P13498 1-195)
T1 sequence: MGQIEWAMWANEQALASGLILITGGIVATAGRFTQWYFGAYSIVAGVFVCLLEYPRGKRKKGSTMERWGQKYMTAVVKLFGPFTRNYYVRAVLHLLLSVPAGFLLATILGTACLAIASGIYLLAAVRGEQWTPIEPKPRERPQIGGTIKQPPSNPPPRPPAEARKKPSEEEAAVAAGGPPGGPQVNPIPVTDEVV
Assay: cryo-EM structure

B1: NOX2 (gp91phox), catalytic subunit of phagocyte NADPH oxidase (enzyme)
chain: MGNWAVNEGLSIFVILVWLGLNVFLFVWYYRVYDIPPKFFYTRKLLGSALALARAPAACLNFNCMLILLPVCRNLLSFLRGSSACCSTRVRRQLDRNLTFHKMVAWMIALHSAIHTIAHLFNVEWCVNARVNNSDPYSVALSELGDRQNESYLNFARKRIKNPEGGLYLAVTLLAGITGVVITLCLILIITSSTKTIRRSYFEVFWYTHHLFVIFFIGLAIHGAERIVRGQTAESLAVHNITVCEQKISEWGKIKECPIPQFAGNPPMTWKWIVGPMFLYLCERLVRFWRSQQKVVITKVVTHPFKTIELQMKKKGFKMEVGQYIFVKCPKVSKLEWHPFTLTSAPEEDFFSIHIRIVGDWTEGLFNACGCDKQEFQDAWKLPKIAVDGPFGTASEDVFSYEVVMLVGAGIGVTPFASILKSVWYKYCNNATNLKLKKIYFYWLCRDTHAFEWFADLLQLLESQMQERNNAGFLSYNIYLTGWDESQANHFAVHHDEEKDVITGLKQKTLYGRPNWDNEFKTIASQHPNTRIGVFLCGPEALAETLSKQSISNSESGPRGVHFIFNKENF
modifications: N-glycan moieties at asparagines 132, 149 and 240; two hemes bound
- stoichiometry N: 1
